From patent US20210206859A1 (DRAGONFLY THERAPEUTICS, published 2021) come the findings set out here.

The assay concerns the target T1, B7-H3 expressed on human cancer cell lines (786-O, BT-474, HCC1954) (human, UniProt Q5ZPR3 29-534).
T1 construct: The assay used B7-H3 expressed endogenously on the cell lines; also called CD276; cell expressed B7-H3
T1 sequence: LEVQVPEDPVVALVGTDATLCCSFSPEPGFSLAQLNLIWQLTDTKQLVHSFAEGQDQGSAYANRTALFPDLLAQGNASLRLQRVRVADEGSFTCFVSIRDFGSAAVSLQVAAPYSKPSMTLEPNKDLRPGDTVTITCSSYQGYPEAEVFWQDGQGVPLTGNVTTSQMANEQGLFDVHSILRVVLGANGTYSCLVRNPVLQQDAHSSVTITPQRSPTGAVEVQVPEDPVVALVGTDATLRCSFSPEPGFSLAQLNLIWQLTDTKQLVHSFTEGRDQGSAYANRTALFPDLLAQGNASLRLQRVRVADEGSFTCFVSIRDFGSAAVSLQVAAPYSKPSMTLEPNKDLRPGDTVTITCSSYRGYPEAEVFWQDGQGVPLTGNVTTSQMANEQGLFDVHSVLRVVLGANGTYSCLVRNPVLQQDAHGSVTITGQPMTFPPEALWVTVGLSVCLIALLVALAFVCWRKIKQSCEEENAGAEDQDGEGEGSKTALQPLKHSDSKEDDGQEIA
Description: flow cytometry on 786-O, BT-474 and HCC1954 cells, anti-human IgG detection. As for the experimental part: Human cancer cell lines expressing B7-H3 were used to assess tumor antigen binding of TriNKETs derived from B7-H3 targeting clones. Human breast cancer cell lines BT-474 and HCC1954 and renal cancer cell line 786-O were used to assess binding of TriNKETs to cell expressed B7-H3. Varying concentrations of either TriNKET or monoclonal antibody were allowed to bind cells for 20 minutes on ice, after which cells were washed and the amount of bound TriNKET/monoclonal antibody was measured using fluorophore conjugated anti-human IgG secondary antibody. Cells were then analyzed by flow cytometry and binding MFI to cell expressed B7-H3 was plotted against varying concentration.

B1: huM30 (Daiichi Sankyo, Inc.) parental monoclonal antibody (antibody, V domains shown)
VH: QVQLVQSGAEVKKPGSSVKVSCKASGYTFTNYVMHWVRQAPGQGLEWMGYINPYNDDVKYNEKFKGRVTITADESTSTAYMELSSLRSEDTAVYYCARWGYYGSPLYYFDYWGQGTLVTVSS
VL: EIVLTQSPATLSLSPGERATLSCRASSRLIYMHWYQQKPGQAPRPLIYATSNLASGIPARFSGSGSGTDFTLTISSLEPEDFAVYYCQQWNSNPPTFGQGTKVEIK
notes: also called parental mAb; B7-H3 parental monoclonal antibody
For B1, the binding result is on record as “binds”.

B2: huAb13v1 (AbbVie Inc.) parental monoclonal antibody (antibody, V domains shown)
VH: EVQLQESGPGLVKPSETLSLTCAVTGYSITSGYSWHWIRQFPGNGLEWMGYIHSSGSTNYNPSLKSRISISRDTSKNQFFLKLSSVTAADTAVYYCAGYDDYFEYWGQGTTVTVSS
VL: DIQMTQSPSSLSASVGDRVTITCKASQNVGFNVAWYQQKPGKSPKALIYSASYRYSGVPSRFSGSGSGTDFTLTISSLQPEDFAEYFCQQYNWYPFTFGQGTKLEIK
notes: as for B1
Regarding B2, the binding result was “binds”.

B3: A49MI-F3′-TriNKET-huAb13v1 (bispecific antibody, human IgG1, kappa)
scFv: DIQMTQSPSSLSASVGDRVTITCKASQNVGFNVAWYQQKPGKSPKALIYSASYRYSGVPSRFSGSGSGTDFTLTISSLQPEDFAEYFCQQYNWYPFTFGCGTKLEIKGGGGSGGGGSGGGGSGGGGSEVQLQESGPGLVKPSETLSLTCAVTGYSITSGYSWHWIRQFPGNCLEWMGYIHSSGSTNYNPSLKSRISISRDTSKNQFFLKLSSVTAADTAVYYCAGYDDYFEYWGQGTTVTVSSASDKTHTCPPCPAPELLGGPSVFLFPPKPKDTLMISRTPEVTCVVVDVSHEDPEVKFNWYVDGVEVHNAKTKPREEQYNSTYRVVSVLTVLHQDWLNGKEYKCKVSNKALPAPIEKTISKAKGQPREPRVYTLPPCRDELTKNQVSLTCLVKGFYPSDIAVEWESNGQPENNYKTTPPVLVSDGSFTLYSKLTVDKSRWQQGNVFSCSVMHEALHNHYTQKSLSLSPG
heavy: EVQLVESGGGLVKPGGSLRLSCAASGFTFSSYSMNWVRQAPGKGLEWVSSISSSSSYIYYADSVKGRFTISRDNAKNSLYLQMNSLRAEDTAVYYCARGAPIGAAAGWFDPWGQGTLVTVSSASTKGPSVFPLAPSSKSTSGGTAALGCLVKDYFPEPVTVSWNSGALTSGVHTFPAVLQSSGLYSLSSVVTVPSSSLGTQTYICNVNHKPSNTKVDKKVEPKSCDKTHTCPPCPAPELLGGPSVFLFPPKPKDTLMISRTPEVTCVVVDVSHEDPEVKFNWYVDGVEVHNAKTKPREEQYNSTYRVVSVLTVLHQDWLNGKEYKCKVSNKALPAPIEKTISKAKGQPREPQVCTLPPSRDELTENQVSLTCLVKGFYPSDIAVEWESNGQPENNYKTTPPVLDSDGSFFLYSWLTVDKSRWQQGNVFSCSVMHEALHNHYTQKSLSLSPG
light: DIQMTQSPSSVSASVGDRVTITCRASQGISSWLAWYQQKPGKAPKLLIYAASSLQSGVPSRFSGSGSGTDFTLTISSLQPEDFATYYCQQGVSFPRTFGGGTKVEIKRTVAAPSVFIFPPSDEQLKSGTASVVCLLNNFYPREAKVQWKVDNALQSGNSQESVTEQDSKDSTYSLSSTLTLSKADYEKHKVYACEVTHQGLSSPVTKSFNRGEC
notes: also called TriNKET bearing 13v1 B7-H3 targeting domain; B7-H3 TriNKET
As for B3, the binding result is reported as “binds”.

B4: A49MI-F3′-TriNKET-Enoblituzumab (bispecific antibody, human IgG1, kappa)
scFv: DIQLTQSPSFLSASVGDRVTITCKASQNVDTNVAWYQQKPGKAPKALIYSASYRYSGVPSRFSGSGSGTDFTLTISSLQPEDFATYYCQQYNNYPFTFGCGTKLEIKGGGGSGGGGSGGGGSGGGGSEVQLVESGGGLVQPGGSLRLSCAASGFTFSSFGMHWVRQAPGKCLEWVAYISSDSSAIYYADTVKGRFTISRDNAKNSLYLQMNSLRDEDTAVYYCGRGRENIYYGSRLDYWGQGTTVTVSSASDKTHTCPPCPAPELLGGPSVFLFPPKPKDTLMISRTPEVTCVVVDVSHEDPEVKFNWYVDGVEVHNAKTKPREEQYNSTYRVVSVLTVLHQDWLNGKEYKCKVSNKALPAPIEKTISKAKGQPREPRVYTLPPCRDELTKNQVSLTCLVKGFYPSDIAVEWESNGQPENNYKTTPPVLVSDGSFTLYSKLTVDKSRWQQGNVFSCSVMHEALHNHYTQKSLSLSPG
heavy: EVQLVESGGGLVKPGGSLRLSCAASGFTFSSYSMNWVRQAPGKGLEWVSSISSSSSYIYYADSVKGRFTISRDNAKNSLYLQMNSLRAEDTAVYYCARGAPIGAAAGWFDPWGQGTLVTVSSASTKGPSVFPLAPSSKSTSGGTAALGCLVKDYFPEPVTVSWNSGALTSGVHTFPAVLQSSGLYSLSSVVTVPSSSLGTQTYICNVNHKPSNTKVDKKVEPKSCDKTHTCPPCPAPELLGGPSVFLFPPKPKDTLMISRTPEVTCVVVDVSHEDPEVKFNWYVDGVEVHNAKTKPREEQYNSTYRVVSVLTVLHQDWLNGKEYKCKVSNKALPAPIEKTISKAKGQPREPQVCTLPPSRDELTENQVSLTCLVKGFYPSDIAVEWESNGQPENNYKTTPPVLDSDGSFFLYSWLTVDKSRWQQGNVFSCSVMHEALHNHYTQKSLSLSPG
light: DIQMTQSPSSVSASVGDRVTITCRASQGISSWLAWYQQKPGKAPKLLIYAASSLQSGVPSRFSGSGSGTDFTLTISSLQPEDFATYYCQQGVSFPRTFGGGTKVEIKRTVAAPSVFIFPPSDEQLKSGTASVVCLLNNFYPREAKVQWKVDNALQSGNSQESVTEQDSKDSTYSLSSTLTLSKADYEKHKVYACEVTHQGLSSPVTKSFNRGEC
notes: also called TriNKET bearing Enoblituzumab B7-H3 targeting domain; B7-H3 TriNKET
With B4, the binding result is “binds”.

B5: A49MI-F3′-TriNKET-huM30 (bispecific antibody, human IgG1, kappa)
scFv: EIVLTQSPATLSLSPGERATLSCRASSRLIYMHWYQQKPGQAPRPLIYATSNLASGIPARFSGSGSGTDFTLTISSLEPEDFAVYYCQQWNSNPPTFGCGTKVEIKGGGGSGGGGSGGGGSGGGGSQVQLVQSGAEVKKPGSSVKVSCKASGYTFTNYVMHWVRQAPGQCLEWMGYINPYNDDVKYNEKFKGRVTITADESTSTAYMELSSLRSEDTAVYYCARWGYYGSPLYYFDYWGQGTLVTVSSASDKTHTCPPCPAPELLGGPSVFLFPPKPKDTLMISRTPEVTCVVVDVSHEDPEVKFNWYVDGVEVHNAKTKPREEQYNSTYRVVSVLTVLHQDWLNGKEYKCKVSNKALPAPIEKTISKAKGQPREPRVYTLPPCRDELTKNQVSLTCLVKGFYPSDIAVEWESNGQPENNYKTTPPVLVSDGSFTLYSKLTVDKSRWQQGNVFSCSVMHEALHNHYTQKSLSLSPG
heavy: EVQLVESGGGLVKPGGSLRLSCAASGFTFSSYSMNWVRQAPGKGLEWVSSISSSSSYIYYADSVKGRFTISRDNAKNSLYLQMNSLRAEDTAVYYCARGAPIGAAAGWFDPWGQGTLVTVSSASTKGPSVFPLAPSSKSTSGGTAALGCLVKDYFPEPVTVSWNSGALTSGVHTFPAVLQSSGLYSLSSVVTVPSSSLGTQTYICNVNHKPSNTKVDKKVEPKSCDKTHTCPPCPAPELLGGPSVFLFPPKPKDTLMISRTPEVTCVVVDVSHEDPEVKFNWYVDGVEVHNAKTKPREEQYNSTYRVVSVLTVLHQDWLNGKEYKCKVSNKALPAPIEKTISKAKGQPREPQVCTLPPSRDELTENQVSLTCLVKGFYPSDIAVEWESNGQPENNYKTTPPVLDSDGSFFLYSWLTVDKSRWQQGNVFSCSVMHEALHNHYTQKSLSLSPG
light: DIQMTQSPSSVSASVGDRVTITCRASQGISSWLAWYQQKPGKAPKLLIYAASSLQSGVPSRFSGSGSGTDFTLTISSLQPEDFATYYCQQGVSFPRTFGGGTKVEIKRTVAAPSVFIFPPSDEQLKSGTASVVCLLNNFYPREAKVQWKVDNALQSGNSQESVTEQDSKDSTYSLSSTLTLSKADYEKHKVYACEVTHQGLSSPVTKSFNRGEC
notes: also called TriNKET bearing M30 B7-H3 targeting domain; B7-H3 TriNKET
For the molecule B5, the binding result is on record as “binds”.

B6: Enoblituzumab (MacroGenics, Inc.) parental monoclonal antibody (antibody, V domains shown)
VH: EVQLVESGGGLVQPGGSLRLSCAASGFTFSSFGMHWVRQAPGKGLEWVAYISSDSSAIYYADTVKGRFTISRDNAKNSLYLQMNSLRDEDTAVYYCGRGRENIYYGSRLDYWGQGTTVTVSS
VL: DIQLTQSPSFLSASVGDRVTITCKASQNVDTNVAWYQQKPGKAPKALIYSASYRYSGVPSRFSGSGSGTDFTLTISSLQPEDFATYYCQQYNNYPFTFGQGTKLEIKR
notes: as for B1
As to B6, the binding result is “binds”.
